Among the data in the Immune Epitope Database (IEDB) are Kd values, retold here.

In assay [1] the target is HLA-B*27:05. Kind of assay: IEDB peptide-MHC binding, purified MHC/competitive/fluorescence; filed as Kd, often an IC50 or EC50 that approximates it; ≥ and ≤ were set here for values at or beyond the usual limits of such assays. The settings on record: source organism: Influenza A virus (A/swine/Hong Kong/81/1978(H3N2)).
Assay [2] deals with HLA-B*51:01. Kind of assay: IEDB peptide-MHC binding, purified MHC/direct/fluorescence; filed as Kd, often an IC50 or EC50 that approximates it; ≥ and ≤ were set here for values at or beyond the usual limits of such assays. The settings on record: source organism: human gammaherpesvirus 4.
Assay [3] addresses HLA-B*07:02. The experiment in a line: IEDB peptide-MHC binding, purified MHC/competitive/fluorescence; filed as Kd, often an IC50 or EC50 that approximates it; ≥ and ≤ were set here for values at or beyond the usual limits of such assays. The conditions noted are these: source organism: Human herpesvirus 4 strain B95-8.
Assay [4] has as its target HLA-A*11:01. The description is as above. The conditions noted are these: source organism: Influenza A virus (A/swine/Scotland/410440/94(H1N2)).
For assay [5], the target named is HLA-A*02:01. Described as above.
Assay [6] deals with HLA-A*02:03. Described as above.
Assay [7] has as its target HLA-A*02:11. The assay is described as above.
Assay [8] addresses HLA-A*02:12. The assay is described as above.
In assay [9] the target is HLA-A*02:19. The assay is described as above.
For assay [10], the target named is HLA-A*03:01. The assay is described as above.
The target in assay [11] is HLA-A*24:03. The description is as above.
For assay [12], the target named is HLA-A*26:01. Described as above.
The target in assay [13] is HLA-A*29:02. The assay is described as above.
The target of assay [14] is HLA-B*15:01. The description is as above.
For assay [15], the target named is HLA-B*18:01. The description is as above.
For assay [16], the target named is HLA-B*27:03. Described as above.
The target in assay [17] is HLA-B*39:01. Described as above.
Assay [18] has as its target HLA-B*46:01. The assay is described as above.
The target in assay [19] is HLA-B*51:01. The description is as above.
Assay [20] has as its target HLA-B*57:01. Described as above.
In assay [21] the target is HLA-C*03:03. The experiment in a line: IEDB peptide-MHC binding, purified MHC/direct/fluorescence; filed as Kd, often an IC50 or EC50 that approximates it; ≥ and ≤ were set here for values at or beyond the usual limits of such assays. The conditions noted are these: source organism: Vaccinia virus WR.
The target in assay [22] is HLA-A*02:02. Kind of assay: IEDB peptide-MHC binding, purified MHC/competitive/radioactivity; filed as Kd, often an IC50 or EC50 that approximates it; ≥ and ≤ were set here for values at or beyond the usual limits of such assays. The settings on record: source organism: Vaccinia virus WR.
In assay [23] the target is HLA-A*02:03. Described as above. The conditions noted are these: source organism: Vaccinia virus WR.
For assay [24], the target named is HLA-A*02:06. The assay is described as above. The settings on record: source organism: Vaccinia virus WR.
Assay [25] has as its target HLA-A*68:02. The assay is described as above. The settings on record: source organism: Vaccinia virus WR.
Where [26] appears, read: source organism: Yersinia pestis Antiqua.
The mark [27] stands for this setting: source organism: Vibrio cholerae 2740-80.

Bounds are passed on as bounds.

Usually Kd stands for a measure of binding affinity in units of concentration. GRIQDLEKY displayed a Kd in [1] of 0.112 µM.

With HPVGEADYFEY, the Kd in assay [2] and in assay [3] was not below 20 µM each time.

On to KVYKTYFEK, for which, in assay [4], the Kd turned out to be 0.0047 µM.

PLTNQRYRV: the Kd is not below 20 µM in assay [5] (setting [26]); not below 20 µM in assay [6] (setting [26]); not below 20 µM in assay [7] (setting [26]); not below 20 µM in assay [8] (setting [26]); 0.797 µM in assay [9] (setting [26]); not below 20 µM in assay [10] (setting [26]). The Kd in assay [11] (setting [26]), in [12] (setting [26]), in [13] (setting [26]), in assay [14] (setting [26]), in assay [15] (setting [26]) and in assay [16] (setting [26]) was not below 20 µM each time. In addition, the Kd in assay [17] (setting [26]), in assay [18] (setting [26]), in assay [19] (setting [26]) and in assay [20] (setting [26]) was not below 20 µM each time.

With YEPEMQAQV, the Kd in [5] (setting [27]) was not below 20 µM; in [6] (setting [27]), not below 20 µM; in assay [7] (setting [27]) it was not below 20 µM; in assay [8] (setting [27]), not below 20 µM; in assay [9] (setting [27]) it was 0.845 µM; in [10] (setting [27]), not below 20 µM. Also, the Kd in [11] (setting [27]), in assay [12] (setting [27]), in assay [13] (setting [27]), in assay [14] (setting [27]), in assay [15] (setting [27]) and in assay [16] (setting [27]) was not below 20 µM throughout. Further, the equilibrium dissociation constant (Kd) in assay [17] (setting [27]), in [18] (setting [27]), in assay [19] (setting [27]) and in [20] (setting [27]) was not below 20 µM each time.

YIYGIPLSL: the Kd in assay [21] was not above 0.001 µM; in assay [22] it was 0.46 µM; in assay [23], 13.1 µM; in [24], 11.5 µM; in [25] it was 1.87 µM.
